Columns and labels:
human PAI-1 [1] = molecular target: T1, human PAI-1 (human, UniProt P05121 24-402); assay: cell-based or functional assay
[2] = molecular target: T2, glycosylated human PAI-1 (active form) (human, UniProt P05121 24-402, glycosylated); assay: cell-based or functional assay
[3] = molecular target: T2, glycosylated human PAI-1 (active form); assay: SPR Biacore 2000, mAb captured by anti-Fc, single-cycle kinetics, 1:1 model
Procedure: First, the surface of a Sensor Chip CM5 (GE Healthcare, Uppsala, Sweden) was prepared using routine amine coupling for the capture of the mouse and human anti-Fc (Anti-human IgG (Fc) antibody & Anti-mouse IgG antibody kits, GE Healthcare). All monoclonal antibodies (mAbs) were diluted to 5 nM using HBS-EP running buffer. Each purified mAb was captured for three minutes on a different flow cell surface. Human PAI-1 was injected at various concentrations (2.5, 5, 10, 20 and 40 nM) with short dissociation times in between and a long dissociation time at the end (contact time: 120 seconds, short dissociation: 90 seconds; long dissociation: 1800 seconds, flow rate: 50 μl/min). The chip was regenerated by glycine-HCl, pH 1.7 buffer after each round of antibody-PAI-1 binding. Kinetics data analysis was performed using Biacore BIAevaluation software. The sensorgrams were double-referenced by subtracting the reference flow cell values and the blank buffer values. The sensorgrams were fitted by using the simulated kinetics 1:1 (Langmuir) model with local Rmax. (see FIG. 19).

[4] = molecular target: T2, glycosylated human PAI-1 (active form); assay: cell-based or functional assay; remark: listed apart in the source
[5] = molecular target: T2, glycosylated human PAI-1 (active form); assay: cell-based or functional assay; remark: listed apart in the source
human PAI-1 [6] = molecular target: T1, human PAI-1; assay: Biacore, hybridoma supernatant
cynomolgus PAI-1 = molecular target: T3, cynomolgus PAI-1 (cynomolgus monkey (Macaca fascicularis), UniProt P05121 24-402 (human entry)); assay: Biacore, hybridoma supernatant
T3 construct: produced in-house in E. coli (non-glycosylated); active cyno PAI-1 in the assays; also called cyno PAI-1; cPAI-1
T3 sequence (P05121 other isoform, or with tags, fused parts or gaps limits assumed): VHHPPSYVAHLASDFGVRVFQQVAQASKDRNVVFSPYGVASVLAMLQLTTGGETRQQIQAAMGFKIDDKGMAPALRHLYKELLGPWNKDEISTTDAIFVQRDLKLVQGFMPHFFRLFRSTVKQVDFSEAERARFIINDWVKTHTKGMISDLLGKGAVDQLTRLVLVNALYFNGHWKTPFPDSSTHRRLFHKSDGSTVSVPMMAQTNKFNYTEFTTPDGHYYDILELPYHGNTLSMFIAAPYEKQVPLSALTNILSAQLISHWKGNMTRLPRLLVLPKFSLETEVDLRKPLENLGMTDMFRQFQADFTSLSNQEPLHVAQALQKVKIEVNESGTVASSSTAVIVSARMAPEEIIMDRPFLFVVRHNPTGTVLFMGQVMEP

[7] = molecular target: T2, glycosylated human PAI-1 (active form); assay: Biacore (summary table)
Procedure: (§1) In kinetics measurement, the antibodies were evaluated in reverse at 25° C. In the reverse assay, PAI-1 antibodies were captured to the anti-mouse IgG Fc antibody surface prepared on CM5 chip followed by injecting the serial 2× dilutions of PAI-1 proteins (human or cyno) starting at 40 nM. A high flow rate was chosen at 50 ul/min to avoid mass transportation limitation. Two thousand seconds was allowed for dissociation time to accommodate for the slow off rate of the selected antibodies. The chip was regenerated by glycine-HCl, pH 1.7 buffer after each round of antibody-PAI-1 binding. Kinetics data analysis was performed using Biacore BIAevaluation software. The sensorgrams were double-referenced by subtracting the reference flow cell values and the blank buffer values. The sensorgrams were fitted by using the simulated kinetics 1:1 (Langmuir) model with local Rmax.

human PAI-1 [8] = molecular target: T1, human PAI-1; assay: Biacore reverse assay, mAb captured by anti-mouse IgG Fc, 25 C
Procedure: as §1

human PAI-1 [9] = molecular target: T1, human PAI-1; assay: cell-based or functional assay; remark: listed apart in the source
human PAI-1 [10] = molecular target: T1, human PAI-1; assay: cell-based or functional assay; remark: listed apart in the source
[11] = molecular target: T4, cyno PAI-1 captured on immobilized human vitronectin (cynomolgus monkey; human, UniProt P04004 20-478, limits assumed); assay: Biacore, cPAI-1 on vitronectin chip, two state reaction model
T4 construct: non-covalent complex formed on the chip; also called cPAI-1/Vn
T4 sequence (chain, as listed by the source limits assumed, chain 1 of 2): as the sequence (P05121 other isoform, or with tags, fused parts or gaps limits assumed) above
T4 sequence (P04004 20-478 limits assumed, chain 2 of 2): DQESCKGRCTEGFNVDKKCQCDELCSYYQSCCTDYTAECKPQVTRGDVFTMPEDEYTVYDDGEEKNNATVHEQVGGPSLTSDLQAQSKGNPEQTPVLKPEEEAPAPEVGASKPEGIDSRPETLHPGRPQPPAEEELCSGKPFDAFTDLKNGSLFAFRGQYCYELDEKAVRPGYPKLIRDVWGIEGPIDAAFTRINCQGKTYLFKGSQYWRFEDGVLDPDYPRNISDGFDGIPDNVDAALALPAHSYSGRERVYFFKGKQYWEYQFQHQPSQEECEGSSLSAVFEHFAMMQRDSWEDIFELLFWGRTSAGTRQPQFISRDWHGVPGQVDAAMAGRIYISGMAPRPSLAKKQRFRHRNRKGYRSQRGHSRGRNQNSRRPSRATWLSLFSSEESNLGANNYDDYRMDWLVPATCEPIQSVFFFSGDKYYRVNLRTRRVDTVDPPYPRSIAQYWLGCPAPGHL

[12] = molecular target: T5, human PAI-1 captured on immobilized human vitronectin (human, UniProt P04004 20-478); assay: Biacore, hPAI-1 on vitronectin chip, two state reaction model
T5 construct: non-covalent complex formed on the chip or plate; also called PAI-1/Vn complex; Vn captured hPAI-1
T5 sequence (chain, as listed by the source limits assumed, chain 1 of 2): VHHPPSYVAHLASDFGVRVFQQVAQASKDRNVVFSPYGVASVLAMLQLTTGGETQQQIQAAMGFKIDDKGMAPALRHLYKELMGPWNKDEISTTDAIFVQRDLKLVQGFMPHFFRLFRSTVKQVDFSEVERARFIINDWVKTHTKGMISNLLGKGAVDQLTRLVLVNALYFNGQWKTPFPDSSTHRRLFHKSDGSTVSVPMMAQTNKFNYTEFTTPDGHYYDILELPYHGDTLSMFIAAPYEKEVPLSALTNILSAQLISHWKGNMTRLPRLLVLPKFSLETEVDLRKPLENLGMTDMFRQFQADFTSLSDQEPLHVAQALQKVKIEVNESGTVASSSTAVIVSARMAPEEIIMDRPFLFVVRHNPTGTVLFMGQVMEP
T5 sequence (P04004 20-478 limits assumed, chain 2 of 2): as the sequence (P04004 20-478 limits assumed, chain 2 of 2) above

[13] = molecular target: T4, cyno PAI-1 captured on immobilized …; assay: Biacore, cPAI-1 on vitronectin chip, two state reaction model (ka1)
[14] = molecular target: T4, cyno PAI-1 captured on immobilized …; assay: Biacore, cPAI-1 on vitronectin chip, two state reaction model (kd1)
[15] = molecular target: T5, human PAI-1 captured on immobilized …; assay: Biacore, hPAI-1 on vitronectin chip, two state reaction model (ka1)
[16] = molecular target: T5, human PAI-1 captured on immobilized …; assay: Biacore, hPAI-1 on vitronectin chip, two state reaction model (kd1)

Binder	PAI-1 activity in human plasma (uPA-PAI-1 complex ELISA), IC50abs (human PAI-1 [1]) [nM]	PAI-1 activity in human plasma (uPA-PAI-1 complex ELISA), Imax (human PAI-1 [1]) [%]	human plasma clot lysis, IC50 [2] [nM]	human plasma clot lysis, Imax @ 100 nM [2] [%]	Kd [3] [nM]	koff [3] [s⁻¹]	plasmin generation, hepatic stellate cells, IC50abs [4] [nM]	plasmin generation, hepatic stellate cells, Imax [4] [%]	Chromogenic Assays [5] [nM]	Plasmin Generation [5] [nM]	koff (human PAI-1 [6]) [s⁻¹]	further results
APG (antibody, V domains shown, murine anti-PAI-1 antibody of DE2000153251; also called mAPG; mouse APG) VH: QVKLQESGPELVKPGASVKISCKASGYSFTDYNMNWVKQSKGKSLEWIGIIHPNSGTTTYNQKFKGKATLTVDQSSSTAYLQLNSLTSEDSAVYYCARSKLRFFDYWGQGTTVTVSS VL: DIKLTQSPSSMYASLGERVTITCKASQDIYSYLSWFQQKPGKSPKTLIYRANRLIDGVPSRFSGSGSGQDYSLTISSLEYEHMGIYYCLQYDEFPFTFGSGTKLEIK	1.81	89.7	2.34	123	0.113	0.000432	–	–	–	–	–	–
A71 (antibody, mouse IgG1, V domains shown, mouse IgG1/kappa; also called mA71; A71 (IgG1/k)) VH: QVQLQQSGAELMKPGASVKISCKATGFTFSTYWIEWIKQRPGHGLDWIGEILPGSGNTNYNEKFKGKATFTADTSSNTVYMQLSSLTSEDSAVYYCARGGLYYNLDSWGQGTTLTVSS VL: not shown	–	–	–	–	–	–	8.61	90	~4	8.61	≤ 0.0001	binding result (cynomolgus PAI-1): binds
A105 (antibody, mouse IgG1, V domains shown, mouse IgG1/kappa; also called mA105; A105 (IgG1/k)) VH: QVQLQQSGAELMKPGASVKISCKATGFTFSIYWIEWVKQRPGLGLEWIGEILPGSGSTNYNEKFKGKATFTADTSSNTAFMQLSSLTSEDSAVYYCARGGLYYDLDYWGQGTILTVSS VL: not shown	–	–	–	–	–	–	27	88	7	27	≤ 0.0001	Kd [7]: 0.042 nM; binding result (cynomolgus PAI-1): binds; Kd (human PAI-1 [8]): 0.0423 nM; koff (human PAI-1 [8]): 0.000164 s⁻¹
E16 (antibody, mouse IgG1, V domains shown, mouse IgG1; also called mE16; E16 (IgG1)) VH: EVKLVESGGGLVKPGGSLKLSCAASGFTFSNYGMSWVRQTPEKGLGWVASLRTGGNTYYSDSVKGRFTISRDNDRNILYLQMSSLTSEDTAVYYCARGLRHWGYFDVWGAGTTVTVSS VL: DIVMTQSHKFMSTSVGDRVNITCKASQDVSTAVGWYQQEPGQSPKLLIYSASNRHTGVPDRFTGSGSGTDFTFTISSVQAEDLAVYYCQQHYSSPWTFGGGTKLEIK	–	–	–	–	–	–	4.74	95	1.1	4.74	≤ 0.0001	EC50, % neutralization of hPAI-1 (chromogenic assay) (human PAI-1 [9]): 1.24 nM
E21 (antibody, mouse IgG2b, V domains shown, mouse IgG2b; also called mE21; E21 (IgG2b)) VH: EVQLQQSGAELVRSGASVKLSCTASGFNIKDYYMHWVKQRPEQGLEWIGWIDPENGDTEYDPKFQAKATMTADTSSNTAYLQLSSLTSEDTAVYYCMYGNYPYYFDYWGQGTTLTVSS VL: DIQMTQTTSSLSASLGDRVTISCRASQDISNYLNWYQQKPDGTVKLLIYYTSRLHSGVPSRFSGSGSGTDYSLTISNLEQEDIATYFCQQGNTLPWTFGGGTKLEIK	–	–	–	–	–	–	–	–	1.3	216	≤ 0.0001	EC50, % neutralization of hPAI-1 (chromogenic assay) (human PAI-1 [9]): 1.08 nM
APGv2 (antibody, V domains shown, humanized APG; captured by anti-human IgG (Fc); also called APG variant 2) VH: QVQLVQSGSELKKPGASVKVSCKASGYSFTDYNMNWVRQAPGQGLEWIGIIHPNSGTTTYNQKFKGRAVLSVDQSVSTAYLQISSLKAEDTAVYYCARSKLRFFDYWGQGTLVTVSS VL: DIQLTQSPSSLSASVGDRVTITCKASQDIYSYLSWFQQKPGKAPKTLIYRANRLIDGVPSRFSGSGSGQDYTFTISSLQPEDIATYYCLQYDEFPFTFGQGTKLEIK	0.962	94.5	2.08	114	0.0408	0.000269	–	–	–	–	–	–
APGv4 (antibody, V domains shown, humanized APG; captured by anti-human IgG (Fc); also called APG variant 4) VH: QVQLVQSGAEVKKPGASVKVSCKASGYSFTDYNMNWVRQAPGQGLEWIGIIHPNSGTTTYNQKFKGRATLTVDQSTSTAYMELSSLRSEDTAVYYCARSKLRFFDYWGQGTLVTVSS VL: DIQLTQSPSSLSASVGDRVTITCKASQDIYSYLSWFQQKPGKAPKTLIYRANRLIDGVPSRFSGSGSGQDYTFTISSLQPEDIATYYCLQYDEFPFTFGQGTKLEIK	1.28	94.4	2.82	116	0.038	0.000359	–	–	–	–	–	–
A44-hv7 (antibody, V domains shown, humanized A44, HEK293; constant regions as for A44-hv1; also called LC4 x HC4; variant 7) VH: QMTLKESGPTLVKPTQTLSLTCSVSGESMTQGYWNWIRQFPGKALEYMGYITYSGSTYYNPSLKGRITITRQTSKNQYYLTLSSVTTVETATYYCARWHYGSPYYFDYWGQGTTLTVSS VL: DIKMTQSPSSLSASVGDRVTITCKASQDINSYLSWLQQKPGKSPKTLIYRAQRSVEGVPSRFSGSGSGQDYSLTISSLQPEDLATYYCLQYDEFPPTFGGGTKLEIK	–	–	–	–	–	–	–	–	–	–	–	Chromogenic Assay IC50 (human PAI-1 [10]): 0.59 nM; Kd [11]: 0.0956 nM; Kd [12]: 0.0964 nM; kon [13]: 2.5e+06 M⁻¹ s⁻¹; koff [14]: 0.000239 s⁻¹; kon [15]: 4.14e+06 M⁻¹ s⁻¹; koff [16]: 0.000394 s⁻¹

— patent US20160200831A1 (Sanofi, published 2016)
